Target: the molecule itself
Assay: crystal structure

B1: YukC413.strep (domain or fragment, B. subtilis 168, UniProt P71070 1-413, looked up)
chain: MSGEQKSYLENQLEAVAEKTDAGYTFTFQREKIKLLDGLEANVIKDINPFFHKEIDVTDDEVIITIQPPSSYKAFRFMKAKDKKSKWQFAYQLVQAVQQHNLSRLNLIVAPENIVFDKGLTPYFLHYGVKESIPPYERDEERVWQELKAAAALAVDGAFAFEDYLKFNETLTFSAEAKAILDAESYDDLLELIQTHIDELEAKAKTYIHIPRKKWNIQRYIGLGLIVLLVPALIYSMYALFFAQPKHQAIVDSNRAFLNKQYSEVISTLSKYDAESLPESVQYQLATSYVEVENLGSAKTKNIENNLVTLQSDPQHFLYWIDYGRGEYKEAISIGRKLEYNDYIYFALAKYKQQLLSEDTNDEDIQKELDSVNSELEKAQKERQENKQSNSETSLVDTSEEQTQTDEEKQAEE
Question: For B1, which “stoichiometry N” value is on record?
Answer: 2
